{
  "source": "the nanobody polyreactivity screen of Harvey et al. (2022)",
  "data": [
    {"experiment": "yeast display, Sf9 membrane polyspecificity reagent, FACS + sequencing; frameworks hold sequencing errors", "how_it_was_run": "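Synthetic nanobody libraries on Saccharomyces cerevisiae BJ5465 were galactose-induced for 36–48 hours, stained 1 hour at 4 °C with 10% biotinylated, detergent-solubilized Sf9 membrane reagent and enriched on streptavidin microbeads. FACS then separated cells into low and high (top ~1%) gates by anti-HA (expression) and streptavidin (reagent binding) fluorescence. Genes were colony-PCR amplified, MiSeq 2 × 250 sequenced and CDR-length filtered. A clone's polyreactivity label is that of its gate of origin.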", "values": [
      {"sequence": "QVKLVESGGGLVMAGGSLRLSCAASGRTFWIYAMGRYRQAPGKERELVAAISQSSSITYYADSVKRRFTFSRDNAKNTVYLQMNSLKPEDTEGYYCNSDVLRYQGSWLEYWGQGTQVTVSS", "polyreactivity (PSR sort gate)": "low polyreactivity"},
      {"sequence": "QVQLVESVGGLVQAGGSLRLSCAASGRTFDYYALGWYRQAPGKERELVAAISSSGGRTYYADSVKGRFTISRDNAKNTVYLQMNSLKPEDTAVYYCNAVVSRNYEYWGQGTQVTVSS", "polyreactivity (PSR sort gate)": "high polyreactivity"},
      {"sequence": "QVQLVESGGGLVQAGGRRRLICAASGSTFVRNAMGWYRQAPGKERELVATISSGGGTKYADSVKGRFTISRDNAKNTVYLQMNSLKPEDTAVYYCAARYRSYAVRLRGYDYWGQGTQVTVSS", "polyreactivity (PSR sort gate)": "high polyreactivity"},
      {"sequence": "QVQLVESGGGLVQAGGSLRLSCAASGFTFYTNAMGWYRQATGKERELVAVITSGGNTYYADSVKGRFTISRDNAKYTVYLQMNSLKPEDTAVYYCAAKPKRPIRFDYWGQGTQVTVSS", "polyreactivity (PSR sort gate)": "high polyreactivity"},
      {"sequence": "QVQLVESGGGLVQAGGSLRLSCAASGRTFPSYTMGWYRQAPGKERELVAAITWTGGSTYYADSVKGRFTISRDNAKNTVYLQINSLKREDTAVYYCADYEYWGQGTQVTVSS", "polyreactivity (PSR sort gate)": "low polyreactivity"},
      {"sequence": "QVQLVESGGGLVQAGGSLRLSCAASGRIFSFNAMGWYRQAPGKERELVATISWNGDSTYADSVKGRFTISRDNAKNTVYLQMNSLKPEDTAVYYCAVDVPPWDYDYWGQGTQVTVSS", "polyreactivity (PSR sort gate)": "low polyreactivity"},
      {"sequence": "QVQLVESGGGLVQAGGSLRLSCAASGRIFTKNTMGWYRQAPGKERELVAAIRSRAGSTYYADSVKGRFTISRDNAKNTVYLQMNSLKPEDTAVYYCAVPWFRSVDFDYWGQGTQVTVSS", "polyreactivity (PSR sort gate)": "low polyreactivity"},
      {"sequence": "QVQLVESGGGLVQAGGSLRLSCAASGITFRYYAMGWYRQGPGKERELVASITSGGVNTYYADSVKGRFTISRDNANNTDYLQMNSLKPEDTAVFYCATRFSYSALGGYDYWGQGTQVTVSS", "polyreactivity (PSR sort gate)": "low polyreactivity"},
      {"sequence": "QVQLVESGGGLVQAGGSLRLSCAASGRTFADYVMGWYRQAPGKERELVAAITSSGGSTYYADSVKGRFTISRDNAKNTVYLQMNSLKPEDTAVYYCAAQQSPSVDYWGQGTQVTVSS", "polyreactivity (PSR sort gate)": "low polyreactivity"},
      {"sequence": "QVQLVESGARLVQAGGSLRLRCAPSGSIFDGYAMGWYRQAPGKEREFVAAISKGGTRTYYADSVKGRFTISRDNAKNTVYLQMNSLIPEDSAVFYCNAYYRREPDDGDYDYWGQGTQVTVSS", "polyreactivity (PSR sort gate)": "high polyreactivity"},
      {"sequence": "QVQLVESGGGLVQAGGSLRLSCAASGFIFSNYAMGWYRQAPGKERELVAAISWSGTRTYYADSVKGRFTISRDNAKNTVYLQMNSLKPEDTAVYYCAAYGVYLYDYWGQGTQVTVSS", "polyreactivity (PSR sort gate)": "low polyreactivity"},
      {"sequence": "QVLIEDSGGGLVQAGGSLRLSCAASGSIFYFYAMGWYRQAPGKERELVAAISYSVGSTYYADSVKGRFTISRVNAKNTVYLQMNSLKPEDTAVDYCAADYYYGAWDGYGDEKYYYWGQGTQVTVSS", "polyreactivity (PSR sort gate)": "low polyreactivity"},
      {"sequence": "QVQLVESGGGLVQAGGSLRLSCAASGRIFFYAMGWYRQAPGKERELVASITTSGTSTYYADSVKGRFTISRDNAKNTVYLQMNSLKPEDTAVYYCNATSNSIRWYDFYYWGQGTQVTVSS", "polyreactivity (PSR sort gate)": "low polyreactivity"},
      {"sequence": "QVQLVESGGGLVQAGGSLRLSCAASGRIFSPSDMGWYRQAPGKERELVAAIRSDGGRTHYADSVKGRFTISRDNAKNTVYLQMNTLKPEDTAVYYCARDNGRTITTTDTYDYWRQGTQVTVSS", "polyreactivity (PSR sort gate)": "low polyreactivity"},
      {"sequence": "QVQLVESGGGLVQAGGSLRLSCAASGITFYYYTMGWYRQAPGKERELVAAITSRGGNTYYADSVKGRFTISRDYAKNTVYLQMNSLKPEDTAVYFCAASRFSSRGYGYWGQGTQVTVCS", "polyreactivity (PSR sort gate)": "high polyreactivity"},
      {"sequence": "QVQLVESGGGLVQAGGSLRLSCAASGRIFTANAMGCYIQAPGKERELVAAISWRGGSTYYADSVKGRFTISRDNAKNTVYLQMNSLKPEDTAVYYCNKVGATWRQWFGYWGQGTQVTVSS", "polyreactivity (PSR sort gate)": "high polyreactivity"},
      {"sequence": "QVQLIESGGGLVQAGGSLRLSCAASGSIFYNNTMGWYRQAPGKERELVATIRTSGGSTYADSVKGRYTISRDNAKNTLYLQMNSLKPEDTAVYYCAVRRYRSSSYYYWGQGTQVTVSS", "polyreactivity (PSR sort gate)": "high polyreactivity"}
    ]}
  ]
}
